The values below come from the Human Domainome abundance scans (Beltran et al. 2025).

B1: POU domain, class 3, transcription factor 1, residues 247 to 324; numbered along this chain, Q03052 (parent)
chain: EDAPSSDDLEQFAKQFKQRRIKLGFTQADVGLALGTLYGNVFSQTTICRFEALQLSFKNMCKLKPLLNKWLEETDSSS

± gives the uncertainty stated by the source.

In the data set the parent is B1. Put plainly: abundance fitness (aPCA) (normalised: wild type 0, dead -1); higher = more abundant; growth selection in yeast, the domain comes from the species named. The following applies: Homo sapiens.
Take EDAPSSDSLEQFAKQFKQRRIKLGFTQADVGLALGTLYGNVFSQTTICRFEALQLSFKNMCKLKPLLNKWLEETDSSS [D8S]: the abundance fitness is -0.415 ± 0.099. Next, EDAPSSDKLEQFAKQFKQRRIKLGFTQADVGLALGTLYGNVFSQTTICRFEALQLSFKNMCKLKPLLNKWLEETDSSS [D8K]: -0.397 ± 0.16.

Take EDAPSSDNLEQFAKQFKQRRIKLGFTQADVGLALGTLYGNVFSQTTICRFEALQLSFKNMCKLKPLLNKWLEETDSSS [D8N]: the abundance fitness is -0.294 ± 0.2. On to EDAPSSDTLEQFAKQFKQRRIKLGFTQADVGLALGTLYGNVFSQTTICRFEALQLSFKNMCKLKPLLNKWLEETDSSS [D8T], for which the abundance fitness was -0.454 ± 0.18. For EDAPSSDVLEQFAKQFKQRRIKLGFTQADVGLALGTLYGNVFSQTTICRFEALQLSFKNMCKLKPLLNKWLEETDSSS [D8V] the value was -0.217 ± 0.069; for EDAPSSDYLEQFAKQFKQRRIKLGFTQADVGLALGTLYGNVFSQTTICRFEALQLSFKNMCKLKPLLNKWLEETDSSS [D8Y], -0.826 ± 0.43. For EDAPSSEDLEQFAKQFKQRRIKLGFTQADVGLALGTLYGNVFSQTTICRFEALQLSFKNMCKLKPLLNKWLEETDSSS [D7E] the value was 0.089 ± 0.08. Take EDAPSSADLEQFAKQFKQRRIKLGFTQADVGLALGTLYGNVFSQTTICRFEALQLSFKNMCKLKPLLNKWLEETDSSS [D7A]: the abundance fitness was -0.142 ± 0.081.

For the variant EDAPSSPDLEQFAKQFKQRRIKLGFTQADVGLALGTLYGNVFSQTTICRFEALQLSFKNMCKLKPLLNKWLEETDSSS [D7P], the abundance fitness is -0.642 ± 0.23. For EDAPSSGDLEQFAKQFKQRRIKLGFTQADVGLALGTLYGNVFSQTTICRFEALQLSFKNMCKLKPLLNKWLEETDSSS [D7G] the value was -0.045 ± 0.057; for EDAPSSTDLEQFAKQFKQRRIKLGFTQADVGLALGTLYGNVFSQTTICRFEALQLSFKNMCKLKPLLNKWLEETDSSS [D7T], -0.073 ± 0.11. Next, EDAPSSWDLEQFAKQFKQRRIKLGFTQADVGLALGTLYGNVFSQTTICRFEALQLSFKNMCKLKPLLNKWLEETDSSS [D7W]: -0.427 ± 0.11; EDAPSSQDLEQFAKQFKQRRIKLGFTQADVGLALGTLYGNVFSQTTICRFEALQLSFKNMCKLKPLLNKWLEETDSSS [D7Q]: -0.138 ± 0.15. EDAPSSYDLEQFAKQFKQRRIKLGFTQADVGLALGTLYGNVFSQTTICRFEALQLSFKNMCKLKPLLNKWLEETDSSS [D7Y]: the abundance fitness came to 0.101 ± 0.12. In the case of EDAPSSFDLEQFAKQFKQRRIKLGFTQADVGLALGTLYGNVFSQTTICRFEALQLSFKNMCKLKPLLNKWLEETDSSS [D7F], the abundance fitness is -0.616 ± 0.22.

For the variant EDAPSSMDLEQFAKQFKQRRIKLGFTQADVGLALGTLYGNVFSQTTICRFEALQLSFKNMCKLKPLLNKWLEETDSSS [D7M], the abundance fitness is -0.153 ± 0.1. For the variant EDAPSSRDLEQFAKQFKQRRIKLGFTQADVGLALGTLYGNVFSQTTICRFEALQLSFKNMCKLKPLLNKWLEETDSSS [D7R], the abundance fitness was -0.085 ± 0.058.

With EDAPSSKDLEQFAKQFKQRRIKLGFTQADVGLALGTLYGNVFSQTTICRFEALQLSFKNMCKLKPLLNKWLEETDSSS [D7K], the abundance fitness came to 0.358 ± 0.14. For EDAPSSCDLEQFAKQFKQRRIKLGFTQADVGLALGTLYGNVFSQTTICRFEALQLSFKNMCKLKPLLNKWLEETDSSS [D7C] the value was -0.316 ± 0.15; for EDAPSSNDLEQFAKQFKQRRIKLGFTQADVGLALGTLYGNVFSQTTICRFEALQLSFKNMCKLKPLLNKWLEETDSSS [D7N], -0.305 ± 0.36; for EDAPSSHDLEQFAKQFKQRRIKLGFTQADVGLALGTLYGNVFSQTTICRFEALQLSFKNMCKLKPLLNKWLEETDSSS [D7H], -0.361 ± 0.37. Consider EDAPSSVDLEQFAKQFKQRRIKLGFTQADVGLALGTLYGNVFSQTTICRFEALQLSFKNMCKLKPLLNKWLEETDSSS [D7V], for which the abundance fitness was -0.181 ± 0.071.

For EDAPSSSDLEQFAKQFKQRRIKLGFTQADVGLALGTLYGNVFSQTTICRFEALQLSFKNMCKLKPLLNKWLEETDSSS [D7S], the abundance fitness was -0.477 ± 0.13. On to EDAPSSDDLDQFAKQFKQRRIKLGFTQADVGLALGTLYGNVFSQTTICRFEALQLSFKNMCKLKPLLNKWLEETDSSS [E10D], for which the abundance fitness was -0.136 ± 0.12. For EDAPSSDDLQQFAKQFKQRRIKLGFTQADVGLALGTLYGNVFSQTTICRFEALQLSFKNMCKLKPLLNKWLEETDSSS [E10Q], the abundance fitness was -0.144 ± 0.15. In the case of EDAPSSDDLFQFAKQFKQRRIKLGFTQADVGLALGTLYGNVFSQTTICRFEALQLSFKNMCKLKPLLNKWLEETDSSS [E10F], the abundance fitness is -0.073 ± 0.11. For EDAPSSDDLGQFAKQFKQRRIKLGFTQADVGLALGTLYGNVFSQTTICRFEALQLSFKNMCKLKPLLNKWLEETDSSS [E10G] the value was -0.361 ± 0.072; for EDAPSSDDLKQFAKQFKQRRIKLGFTQADVGLALGTLYGNVFSQTTICRFEALQLSFKNMCKLKPLLNKWLEETDSSS [E10K], -0.301 ± 0.17. Next, EDAPSSDDLCQFAKQFKQRRIKLGFTQADVGLALGTLYGNVFSQTTICRFEALQLSFKNMCKLKPLLNKWLEETDSSS [E10C]: -0.118 ± 0.098. For EDAPSSDDLAQFAKQFKQRRIKLGFTQADVGLALGTLYGNVFSQTTICRFEALQLSFKNMCKLKPLLNKWLEETDSSS [E10A] the value was -0.178 ± 0.072; for EDAPSSDDLPQFAKQFKQRRIKLGFTQADVGLALGTLYGNVFSQTTICRFEALQLSFKNMCKLKPLLNKWLEETDSSS [E10P], -0.432 ± 0.15. For the variant EDAPSSDDLMQFAKQFKQRRIKLGFTQADVGLALGTLYGNVFSQTTICRFEALQLSFKNMCKLKPLLNKWLEETDSSS [E10M], the abundance fitness is -0.037 ± 0.08. As for EDAPSSDDLIQFAKQFKQRRIKLGFTQADVGLALGTLYGNVFSQTTICRFEALQLSFKNMCKLKPLLNKWLEETDSSS [E10I], the abundance fitness was -0.456 ± 0.27. As to EDAPSSDDLNQFAKQFKQRRIKLGFTQADVGLALGTLYGNVFSQTTICRFEALQLSFKNMCKLKPLLNKWLEETDSSS [E10N], the abundance fitness is -0.024 ± 0.13.

With EDAPSSDDLHQFAKQFKQRRIKLGFTQADVGLALGTLYGNVFSQTTICRFEALQLSFKNMCKLKPLLNKWLEETDSSS [E10H], the abundance fitness was determined as 0.243 ± 0.12.
